15 sequences from the supplement of paper PMC9170038 can be followed below.

For this series, the system named is MS2 coat protein. The series can be described thus: apparent KD of MS2 coat protein; higher = weaker reporter binding. The conditions noted are these: Eterna round: R107. In outline: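 With or without constant ligand, designed RNA switches in 100 mM Tris-HCl pH 7.5, 80 mM KCl and 4 mM MgCl2 were titrated with SNAP-549-labelled MS2 coat protein. Concentrations went up in twofold steps from 0.7 or 1.5 nM to 3 µM. The switches had been transcribed on-chip from Illumina sequencing clusters, and apparent KD is the per-design median of normalised cluster binding-curve fits.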

The mark [1] stands for this setting: input ligand: theophylline 20 uM.
Setting [2] is: input ligand: tryptophan 2.4 mM.
Setting [3] is: input ligand: theophylline 2 mM.

Take “UUAAGAGGCUAUCAAAUUUGAUUUUGUGAUACCAGAAUAAUUUUAUUCCCUUGGCAGCAUGACAUGAGGAUCACCCAUGUGUCUU [SSTheo A #2]”: the “apparent KD of MS2 coat protein” value (input ligand: arginine 13.2 mM) was determined as 33.8 nM, the “apparent KD of MS2 coat protein” value under setting [1] stood at 40.2 nM and the “apparent KD of MS2 coat protein” value under setting [2] turned out to be 34.6 nM.

As to “UUAAUCUUAUAUGAAAACAUAUAAGCAGAAGGAGCGUGAUAAAACACAGGUAGGUCGCUGAAGGGAACAUGAGGAUCACCCAUGU [AstrosSSArgA#4]”, the “apparent KD of MS2 coat protein” value runs as follows: (input ligand: arginine 13.2 mM) 22.7 nM; (input ligand: none) 22.4 nM; under setting [1], 33.8 nM; under setting [3], 30.6 nM; under setting [2], 28.4 nM.

For “UUACCGUAAGGUAUACCGGUCCACAAUAAUCGAGGACCGGUACGGCCGCCACUCGAUGUGUGAUCACAUGAGGAUCACCCAUGUA [Tryptophan A 20]”, the “apparent KD of MS2 coat protein” value is 99.4 nM (input ligand: arginine 13.2 mM), 460 nM under setting [1] and 562 nM under setting [3].

Consider “UUAUAAGUACCGGUCCUCAGAUCCUCAUGACGAGGACCGGUACGGCCGCCACUCGAAACAUGAGGAUCACCCAUGUAAUAACAUU [Brourdmod19]”, for which the “apparent KD of MS2 coat protein” value was 18.9 nM (input ligand: arginine 13.2 mM), 28.8 nM under setting [1] and 25.6 nM under setting [3].

As for “UUAUAAGUACCGGUCCUCAGAUCCUCAUGACGAGGACCGGUACGGCCGCCACUCGAAACAUGAGGAUCACCCAUGUAAUAAUAUC [Brourdmod09]”, the “apparent KD of MS2 coat protein” value turned out to be 20.6 nM (input ligand: arginine 13.2 mM), 56.6 nM under setting [1] and 59.3 nM under setting [3].

For “UUAUAUACUACGGCCGCCACUGAACAUGAGGAUCACCCAUGUAAUGUUCAGAUUUUUUUUUUUUACAGGACCGGGUAGAAUUAAA [Tryptophan B 2]”, the “apparent KD of MS2 coat protein” value (input ligand: arginine 13.2 mM) amounted to 67.9 nM, the “apparent KD of MS2 coat protein” value under setting [1] is 127 nM and the “apparent KD of MS2 coat protein” value under setting [3] stood at 206 nM.

On to “UUAUUUAACGGAAGGAGCGCGGAAUAAUAAGUGGGUAAACAUGAGGAUCACCCAUGUAAACCGCAGGUAGGUCGCCGAUAUUUAU [AstrosEXyARgB#3]”, for which the “apparent KD of MS2 coat protein” value (input ligand: arginine 13.2 mM) is 66.2 nM; the “apparent KD of MS2 coat protein” value (input ligand: none) is 79.3 nM; the “apparent KD of MS2 coat protein” value under setting [1] amounted to 88.9 nM; the “apparent KD of MS2 coat protein” value under setting [3] was 98.1 nM; the “apparent KD of MS2 coat protein” value under setting [2] came out at 74.7 nM.

Turning to “UUCAGCUAGUCGGCCGCCACUACCUGAGGAUCACCCUGGUAGGUCCACACUGCUUCGGCAGUGAGUAGGACCGGGACUAGCUGAG”, the “apparent KD of MS2 coat protein” value came to 18.3 nM (input ligand: arginine 13.2 mM); 23.2 nM (input ligand: none); 25.2 nM under setting [1]; 19 nM under setting [3]; 52.7 nM under setting [2].

As to “UUCAUGAGGAUUGAUACCAGCCACCAACAUGAGGAACUUACAUGAGGAUCACCCAUGUGAGGCCCUUGGCAGCAAGCAUACAUGA [Exclusion Theophylline B 3]”, the “apparent KD of MS2 coat protein” value (input ligand: arginine 13.2 mM) stood at 10.1 nM; the “apparent KD of MS2 coat protein” value (input ligand: none) came to 10.6 nM; the “apparent KD of MS2 coat protein” value under setting [1] was 16.7 nM; the “apparent KD of MS2 coat protein” value under setting [3] was found to be 48.5 nM; the “apparent KD of MS2 coat protein” value under setting [2] came out at 11.5 nM.

Regarding “UUGCCCAGUACGGCCGCCACUGUGUGCAGGGAGCCCAGGUCCACAUGAGGAUCACCCAUGUACAACAGGACCGGGUACUUGCAAU [Usdizaqu]”, the “apparent KD of MS2 coat protein” value runs as follows: (input ligand: arginine 13.2 mM) 7.54 nM; under setting [1], 12.7 nM; under setting [3], 11.8 nM.

As to “UUGGGUUUGCGAAGGAGCGGGAAAUAUAUAUAUAUAAUCCUAACAUGAGGAUCACCCAUGUCCCAGGUAGGUCGCGCGGGUUUGG [12.M]”, the “apparent KD of MS2 coat protein” value turned out to be 42 nM (input ligand: arginine 13.2 mM); 59.5 nM (input ligand: none); 61.9 nM under setting [1]; 54.3 nM under setting [3]; 51.2 nM under setting [2].

For “UUGGGUUUGUGAAGGAGCGGGAAAGUUAUAUAGUUAAUCCUAACAUGAGGAUCACCCAUGUCCCAGGUAGGUCGCGCGGGUUUGG [12.P]”, the “apparent KD of MS2 coat protein” value was determined as 32.7 nM (input ligand: arginine 13.2 mM); 47.5 nM (input ligand: none); 60.6 nM under setting [1]; 55 nM under setting [3]; 47.3 nM under setting [2].

With “UUGGGUUUGUGAAGGAGCGGGAAAGUUUUAUAGUGAAUCCUAACAUGAGGAUCACCCAUGUCCCAGGUAGGUCGCGCGGGUUUGG [12.Q]”, the “apparent KD of MS2 coat protein” value is, setting by setting: (input ligand: arginine 13.2 mM) 240 nM; (input ligand: none) 134 nM; under setting [1], 115 nM; under setting [3], 144 nM; under setting [2], 80.8 nM.

“UUGGUACGACAGCUCAUAUAAGCAUGUGAUACCAGACUGGAAACAGUCCCUUGGCAGCACUUUACAUGAGGAUCACCCAUGUCGG [EThA NP+V+V2 #3 +-Same Structure]”: the “apparent KD of MS2 coat protein” value is 76.6 nM (input ligand: arginine 13.2 mM), 201 nM under setting [1] and 212 nM under setting [2].

Regarding “UUGUUGUUUGGAAGGAGCGUGGAUGAGUGUGGACAUGAGGAUCACCCAUGUUGGAUGAUACCGCAGGUAGGUCGCCGGGUGGUGG [11.aD]”, the “apparent KD of MS2 coat protein” value is, setting by setting: (input ligand: arginine 13.2 mM) 89.7 nM; (input ligand: none) 164 nM; under setting [1], 162 nM; under setting [3], 300 nM; under setting [2], 75.9 nM.
